In article PMC5518878:

Target: Rhodopsin
Experiment: Tango assay
Conditions: read off a plot

response (ATR, parent: est. 0.39) | response (vehicle, parent: est. 0.08) | Substance
0.71 | 0.18 | human GRK1, full length, fused to the N-terminus of TEV protease (from UniProt Q15835) K46L
0.77 | 0.2 | human GRK1, full length, fused to the N-terminus of TEV protease (from UniProt Q15835) K46W
0.76 | 0.17 | human GRK1, full length, fused to the N-terminus of TEV protease (from UniProt Q15835) K46Y
